B1: Double-stranded RNA-binding protein Staufen homolog 1, residues 183 to 249; numbered along this chain, O95793 (parent)
chain: KSEISQVFEIALKRNLPVNFEVARESGPPHMKNFVTKVSVGEFVGEGEGKSKKISKKNAAIAVLEEL
B2: DnaJ homolog subfamily C member 5, residues 16 to 77; numbered along this chain, Q9H3Z4 (parent)
chain: LYHVLGLDKNATSDDIKKSYRKLALKYHPDKNPDNPEAADKFKEINNAHAILTDATKRNIYD

Variants of: B1
Test: abundance fitness (aPCA) (normalised: wild type 0, dead -1); higher = more abundant; growth selection in yeast, the domain comes from the species named
Conditions: Homo sapiens

Abundance fitness: each site, then its substitutions
V63: M -0.239; G -0.482; F -0.829; R -0.73; Q -0.597; L -0.143; H -0.858; T -0.615; A -0.246; Y -0.906; N -0.521; D -0.497; S -0.693; C -0.233; W -0.818
I54: V -0.075; Y -0.642; M -0.051; P -0.724; Q -0.052; A -0.063; W -0.619; T -0.132; R -0.23; E 0.09; F -0.661; H -0.221; K -0.081; D -0.04; C -0.26; L -0.017; S -0.066
E66: S -0.005; F 0.103; N -0.012; R 0.123; M 0.111; G -0.118; Y 0.063; K 0.216; P -0.235; L 0.114; C -0.037; Q 0.138; W -0.079; I 0.097; H -0.002; V 0.077; T -0.042
K52: T -0.52; S -0.416; R -0.098; Y -0.329; V -0.243; Q -0.318; P -0.179
A60: I -0.452; R -0.882; W -1.02; D -0.649; L -0.414; Q -0.741; H -0.803; P -0.701; K -0.714; T -0.466; C -0.067; E -0.575; G -0.685; N -0.739; V -0.489; M -0.363; Y -0.431; F -0.068
N58: Y -0.4; P -0.763; A -0.171; F -0.434; K -0.149; V -0.565; C -0.451; G -0.655; Q -0.126; I -0.614; S -0.341; T -0.604; M -0.055; L -0.195; H -0.284; R -0.105; W -0.868; E -0.238

Variants of: B2
Test: as above
Conditions: Homo sapiens

Abundance fitness of substitutions, site by site:
L1: N 0.262; T -0.542; M 0.022; S -0.198; K -0.269; R -0.741; C -0.284; A -0.124; I -0.084; G -0.539; E -0.14; W -0.352; F 0.197
L5: N 0.123; M -0.32; K -0.444; Q 0.084; P -0.221; G -0.713; H 0.038; E -0.14
H3: N -0.27; D -0.528; P -0.602; C -0.148; W -0.301; E -0.114; K -0.133; F -0.216; A -0.14; G -0.157; T -0.017; M -0.153; S 0.147; R -0.185; Q -0.116; I -0.423; L -0.364; Y -0.489
Y2: N -0.011; C -0.686; D -0.18; G -0.28; E -0.098; S -0.516; H -0.492; W -0.534; R -0.922; F -0.394; V -0.873; K -0.692; Q -0.358; A -0.496; L -0.653; I -0.809; M -0.422; T -0.357
V4: W -0.687; L -0.292; D -0.458; K -0.646; C -0.056; R -0.765; F -0.362; Q -0.546; N -0.15; T -0.209; A 0.034; M -0.078; I -0.054; Y -0.553; P -0.733; S -0.259; E -0.374; G -0.599
